Results published in patent US20240026407A1, “MODIFICATION OF SAPONINS” (GLAXOSMITHKLINE BIOLOGICALS SA, priority 2020, published 2024).

B1: 1061 (protein, listed as Rhizobium leguminosarum)
chain: MNFQPAAISGNLVSRTWSGDMIAPLSDGGQGTAASFVSKTFEHDGTKLPAELFISALGLYRCFINGVRVGSDLLTPGWTNYDDRLAYQRYDVSNLLKPGLNRIEIWLADGWYRSPLMWGAQAIPNCWGDRIGAIADLIGADGTVLSTDTTWRSGVLPILRSGIYFGEIYDARQENCVETHGTEKLAFDKALLVAHETAAVRELRPLTAVENWTDDEGRTIYDFGQNAGGYIRYTVRGTAGAEVRVEHSEVLGPDRHFDNRNYRTAAAHTVYTLRGNGDETYAPHFTFHGFRYARVTIKGDAKILAIASIPISSVPEPAGGFTSGNALVNRLVENTIWSQRANFVEVPTDCPQRDERLGWTGDAQVFAATACWLSDSQSFLRKYLRDVMADQREDGAVSHFSPDPTRLHPANFPGYAGSTGWGDAIVVIPWVLYTHYGDRAVLSECLESMVRWVDFVWSISDGPLVRPPSRWGDRGFTFGDWLQPVGDNRKPRPTIADDCAATLYHFISTDLLARIAATLGEHALEEKMKQRANEIRRAFTNEFITPAGRLAHNDQTSYALAFLHDLIPAEHRQAAQQHFRQVIIDADYKIGTGFIGTPALLPALTKLGMDDLAEKVFLQEDVPGWLYQVSKGATTIWERWDSMAPDGTIYEPDMNSYNHYAYGAVCQWLFESVAGISPSPSAPGFAEVIVDPAPIPSLSPVSAYHDISQGRIEAGWHCDGKKVTYVLTLPEGCIGWFRPGKRHQNPSLNGEPVVEEAVLAPGTHRLVFSLPNS
B2: 1027 (protein, listed as Dictyoglomus thermophilum)
chain: MKSSNIYSPFDLKCEFTTNPLGVDKKNPIFSWKLRHLEKNEKQTAYQVIVSSSLETINDNIGDVWDTGKVLSSEQVIKYEGKELEPCKVYFWKVRWWDSKDQESPFSVVNTFETGLMNEENWKAKWITKKEHKYEVYSPDGAPFGLNYTIAYAPMFRKSFSISKKIKRARVYIAGLGLYELYINGERIGDRVLDPGQTDYKKRVLYTVYDVSKNIRDGKNAIGVILGNGRYVKEYGYDFPKLIIQVLVEYEDDSIEWIVSDESWKTTYGPITLNSLYHGEIYDGRKEIKGWNLPDFDDSTWENAILAEPPGGKLYSEIYPPIRITKTIKPIKMWSPEPGTYVYDFGQNYTGWIKIKVRTNESGKEIRIRHAELTYEDGTLNYSTNRTALATDVYITKGEGYEEYEPRFTYHGFRYVEILGYPGVPTLEDIEGKVVHTAVESNGEFICSNELINKIHHNIIWGQLSNLMSIPTDCPQRDERMGWMGDAQLSAEEAIFNFDMIGFYRKYLNDIRDAQKENGSLSDVIPPYWSIYPGDPAWSTAYITIAWYLYQYYGDKYVLEEHYEGFKKYVEFLKKLAPDYIVSFYKYGDWCQPGTVRPKDNSGELTSTFYFYHDVITLSKIAKLLGKEADYKYYSELADKIKSAFNKKFLKEKAYASIPTELSEENVKALLEKYPEDIKDFLRQQFTILSSLGMFTSQTLNTLPLYLNLVPEDKVQDVLKTLLEDIIIRHDYHLDTGIVATRYIFDVLTSYGYDEVAYKIVNQKTYPSFGYMIEEGATTLWERWEKLTSTGMNSHNHIMFGSVDAWFYRVIAGVRVGEPGWNKIIFEPHPVGDLKYAKARLNTIKGEVEINWQKTENIFSMRISVPVNSEGEVHVPKLFERFVVKEGDNIIYEKKGDLEENEKYIVIRVGSGSYNFYMEKI
B3: 1007 (protein, listed as Modestobacter marinus)
chain: MSDPTVTVVRLRTDDDSGLTATANATPRLSWSLAADRSGVLQRGYEVQVAPDPGFADPVSSGEVDSDVVVDHDWPAAPLTSRQVAYWRVRVRTDQGWTAWGEPACVEAALLEDADWTARPVFLAGDRGRDGVGPAPLLRREFELPAEPVSARLYLTALGVHRTTLNGRPVGDELLEPGWTSYRDRLLYATHDVTALLRAGRNVLAGSVGDGWFRGNLGWDRLRDFYGDASALLAQLEVRCADGSTVTVSTDEHWRGGYGAVRAADLYDGCDIDLREEPVGWAEAGFDDAGWEPVGTLPLPAGLSQRALPPVRVLQEIEPQVSELSDGTLAVDAGQNVTGWLRLRVTGPSGARVTVRHAEVLDEKGRLVTTLLRSARATDTVVLAGGTADLEPEFTFHGFRYAEVEVPPGVTVDAVRVAVVASDLRRTGQFSCSNPRVDQLFSNVIWSQRDNFLSIPTDCPQRDERLGWTGDIMAFAPTAAANFDSRAFLDSWLTDVGIEQLPSGGVPMVVPNCLTGEFPSPLPQADGAAGWADAVTVVPAALFRAHGSRDLLRRHVGSMQRWVDYVAGLLAEDGTWSGYLQLGDWLDPNAPPERPFEAVTDRDYVATVFVAHSARLLAATCRELGRGPDADRYAALGDRVAQAAWAKWADLAPTTQTGCALAIVFGSAPDAELPALGDALAGLVRASGGRIGTGFLGTPFVLPALTATGHLAEAYQLLLNEECPGWLYQIRHGATTMWERWDGILADGSVHPGQMADGSTMSSFNHYAYGAVASWLYESVAGLSPAAPGYREVLVAPQPGGGLTRAAASIETEYGPASVGWSTDGATLTVDVTLPPGTTGRFAVPAGWSPQQPVALLGSGQHTLLLTGAGA
B4: 1079 (protein, listed as Lunatimonas lonarensis)
chain: MSMIRILSLLFLWMLSFSLVAQSTFSLQKLKVDHQENPLGIETASPVFSWQMQVAGSERGVYQKAYRIQVSDSHGALIWDSQQVSSDRSVGIRYQGEKLRPITAYTWSLTVWNQSDHSQTEIGKFETGWMDSPNAWKNAEWIGGDSEDLVLYAHALAVFKAGVTIQLDQESKSTRAAFLLGGNDVRLMKKNLNILQMESGRDGSYVGFELDISQVNGTEEGLALLHAYRVGYHADDQVGTPFHSMPIPQRLIHEGNKYEPHDLFLECNLGIFQVYLNGTENENKISPNDPSKPSYVAQGLNLNPMGEGGNYINFPLLGDIGFKTDSGQLATFSNLTISNYRRPGNVLFSEAESTISIFDKHPNIRAIAGRYQVGTDNKAVLALEDPSRNAPPMLRTTFTTQAKKIKKARIYATARGIYEMYLNGKRVGQDYFNPGLTQYNKNHQYQIYEVTDALESNAANAWGAWLSEGWWSGHITFSGGNWNFFGDRQSFLGTLLIEYEDGTVQEINTQPQSWKLFTDGPILNGSFFQGEVYDANKESVLTGWSLAQFDDSSWKSAQNVPLEGTTYTGPMTNGTLDYKQLTLSAQNDPTPTIIRRLKAVSMEEVRPGVFVYDMGQNMVGVPKITLSHGHQGDTVILRFAEVKYPDLPAYHPHSGMIMMENIRAALTHDIYIRKGGDEVIQPRFTFHGYRYVEITGIKNAPPLNAVEGLVISSVDSIRSSYTTSNQDVNKLWENITWSMLGNFLSIPTDTPARNERMGWSGDINVFARTSTYLGEVLPFLKRHMMAMRDLQAANGKFADVTPVGNGFGGTLWGSAGIVLPWELFLQYGDTTILEENYEAMKAYLAFLETREDKDSGVQMEGPLGDWLSPEVNKNDNTQFFTAYQAYGYGILHQVAQILGKPTEAATFQAKFASRKKFLMDTYFDARTGKSIHSGVSTQGRGGSTAPGTQKGDPIDTQASYAIPLYLEVIDGDLQEKVLANLIATLARENVDDMGILRPAYSLMTGFIATAAINEAISRYGDPVHAYRLLQQTSYPSWLYSVKNGATTIWERLNSYTVEDGFGGNNSMNSFNHYSFGAVGAWMYMYSLGIQRHPEIPGFKKFRLQPQPDPDGKMTWAKGHYDSMYGRIHSEWKRGVDSWEYKATVPPNTSAVLVLPVKDLERVSEGGKMLTEVLGITLISRENGYITMELSSGSYTFSIE

Assays:
Assay type in all cases: biochemical, Quillaja saponaria
[1] = Experiment 6-2: screening of rhamnosidases for derhamnosylation of saponins in treated bark extract (25%), relative % of Left, Middle and Right Peak by UV HPLC; settings: TBE 25%, pH 7.4, 19.5 h; for Left Peak: mainly QS-17 family, negative control 24%; for Middle Peak: mainly QS-18 and desglucosyl-QS-17 family, negative control 50%; for Right Peak: mainly QS-21 family, negative control 26%
[2] = Experiment 6-1: screening of rhamnosidases for derhamnosylation of saponins in treated bark extract (2%), QS-17 2296 to QS-18 2150 (PAR %); settings: TBE 2%, pH 7.5, 30 degC, 18 h; TIC peak area ratio percent of rhamnosylated starting saponin to derhamnosylated product, LCMS/MS; negative controls 4.876, 5.225
[3] = Experiment 6-1: screening of rhamnosidases for derhamnosylation of saponins in treated bark extract (2%), QS-17 2310 to QS-18 2164 (PAR %); settings: TBE 2%, pH 7.5, 30 degC, 18 h; TIC peak area ratio percent, LCMS/MS; negative controls 3.061, 2.429
[4] = Experiment 6-1: screening of rhamnosidases for derhamnosylation of saponins in treated bark extract (2%), desglucosyl-QS-17 2134 to QS-21 1988 (PAR %); settings: TBE 2%, pH 7.5, 30 degC, 18 h; TIC peak area ratio percent, LCMS/MS; negative controls 2.719, 2.158
[5] = Experiment 6-3: screening of rhamnosidases for derhamnosylation of saponins in crude bark extract (80%), relative % of Left, Middle and Right Peak by UV HPLC; settings: CBE 80%, pH 7.4, 30 degC, 19.5 h; for Left Peak: mainly QS-17 family, negative control 27%; for Middle Peak: mainly QS-18 and desglucosyl-QS-17 family, negative control 48%; for Right Peak: mainly QS-21 family, negative control 26%
Protocol: Selected variants were expressed and lysed as in the method of experiment 6-1.
Crude bark extract (CBE) solution was adjusted to pH 7.4 by addition of NaOH (2M). 20 uL clarified lysate was transferred into fresh 96 well PCR plates. 80 uL CBE solution (pH 7.4) was added to each well of lysate to a final concentration of 80%. Plates were incubated at 30 degC with shaking for 19.5 h.
Quenched with 100 uL MeCN+2% AcOH and shaken at room temperature for 10 mins prior to centrifugation (10 min, 4 degC) to remove particulates. Samples were analysed by UV HPLC using method of Experiment 4-4.
Three key peaks of interest are apparent using this chromatography: Left Peak (retention time approximately 2.30-2.35 min) comprising mainly QS-17 family components; Middle Peak (retention time approximately 2.37-2.42 min) comprising mainly QS-18 family components and desglucosyl-QS-17 family components; and Right Peak (retention time approximately 2.44-2.50 min) comprising mainly QS-21 family components. Peak identity was supported by MS/MS.
Enzyme mediated hydrolysis of the alpha-O-rhamnosylation at the C2 position of the arabinofuranose moiety of QS-17 family components leads to a decrease in Left Peak and an increase in Middle Peak due to formation of QS-18 family components. Enzyme mediated hydrolysis of the alpha-O-rhamnosylation at the C2 position of the arabinofuranose moiety of desglucosyl-QS-17 family components leads to a decrease in Middle Peak and an increase in Right Peak due to formation of QS-21 family components.
The relative percentage of each peak was determined. A decrease in Left Peak and a concomitant increase in Middle Peak and Right Peak is observed for enzymes active under these conditions.

[6] = Experiment 6-1: specificity of rhamnosidases towards other rhamnose residues (C3 saccharide rhamnose, C28 saccharide rhamnose); settings: TBE 2%, pH 7.5, 30 degC, 18 h; LCMS/MS; negative controls 0.18, 0.17

Row | Molecule | Left Peak [1] [%] | Middle Peak [1] [%] | Right Peak [1] [%] | QS-17 (PAR %) [2] [%] | Peak57 (PAR %) [3] [%] | Peak75 (PAR %) [4] [%] | Left Peak [5] [%] | Middle Peak [5] [%] | Right Peak [5] [%] | ratio PP/QS-21 [6]
1 | B1 | 13 | 59 | 28 | 0.245 | 0.029 | 0.230 | 26 | 48 | 27 | 0.19
2 | B2 | 18 | 55 | 27 | 0.324 | 0.053 | 0.094 | 26 | 48 | 26 | 0.19
3 | B3 | 8 | 62 | 30 | 0.104 | 0.009 | 0.043 | 24 | 49 | 27 | 0.19
4 | B4 | 14 | 58 | 28 | 0.315 | 0.000 | 0.247 | 25 | 48 | 27 | 0.18
